Laboratory results as given in publication PMC8915838.

Key:
[1] = target: leukotriene A4 hydrolase (LTA4H) (UniProt P09960); assay: SPR
[2] = target: plasmin; assay: enzyme inhibition
[3] = target: trypsin; assay: enzyme inhibition
[4] = target: leukotriene A4 hydrolase (LTA4H) (UniProt P09960); assay: enzyme inhibition

In the case of “MTX, immunosuppressant protein from the submandibular salivary glands of the bat Myotis pilosus (natural protein)”, the Kd [1] is reported as 0.45 nM, the Ki [2] is reported as 80 nM and the Ki [3] is reported as 67.5 nM. For the same substance, the Ki [4] was 1230 nM.
